According to US12076390 (Dana-Farber, dated 2024):

Biological target: HA on infectious virus A/Brisbane/10/07 (H3N2-BR07) (influenza A virus A/Brisbane/10/07 …)
Assay: cell-based or functional assay

B1: 3I14 VLD94N IgG1 (antibody, V domains shown)
VH: QVQLLESGGGVVQPGRSLRLSCAASGFTFSNYGMHWVRQAPGKGLEWVAIISFDGSKKYYANSVKGRSTISRDNSKNTLSLQMNSLGPEDTALYYCAKLPSPYYFDSRFVWVAASAFHFWGQGILVTVSS
VL: NFMLTQPPSASGTPGQRVTISCSGSSSNIGGNTVHWFQQLPGTAPKLLIYTNSLRPSGVPDRFSGSKSGTSASLAISGLQSEDEADYYCAAWDNSLNGQVFGGGTKLTVL
- IC50, neutralization of infectious H3-BR07 virus: 0.337 µg/mL
